{"source": "patent US20240140995A1", "about": "(ROCHE DIAGNOSTICS OPERATIONS, published 2024)", "binders": {"B1": {"name": "E. coli IM-7, singly biotinylated (other)", "chain": "MELKNSISDYTEAEFVQLLKEIEKENVAATDDVLDVLLEHFVKITEHPDGTDLIYYPSDNRDDSPEGIVKEIKEWRAANGKPGFKQG"}, "B2": {"name": "E. coli ColE-7 (other)", "chain": "ESKRNKPGKATGKGKPVNNKWLNNAGKDLGSPVPDRIANKLRDKEFKSFDDFRKKFWEEVSKDPELSKQFSRNNNDRMKVGKAPKTRTQDVSGKRTSFELHHEKPISQNGGVYDMDNISVVTPKRHIDIHRGK"}}, "key": {"[1]": {"molecular_target": "B2", "assay": "SPR Biacore T200, 37 C, single cycle kinetics"}, "[2]": {"molecular_target": "B2", "assay": "SPR Biacore T200, 37 C, single cycle kinetics; biotinylated immunity protein on streptavidin sensor, colicin analyte 1.1-90 nM"}, "[3]": {"molecular_target": "GthIM (Geobacillus thermoglucosidasius immunity protein, C18A, engineered), singly biotinylated (Geobacillus thermoglucosidasius)", "assay": "SPR Biacore T200, 37 C, single cycle kinetics; biotinylated immunity protein on streptavidin sensor, colicin analyte 1.1-90 nM"}}}
{"binder": "B1", "values": [{"measurement": "complex half-life t/2-diss", "setting": "[1]", "value": "> 19.2", "unit": "h"}, {"measurement": "Kd", "setting": "[2]", "value": "< 0.0057", "unit": "nM"}, {"measurement": "MR (Molar Ratio, binding stoichiometry)", "setting": "[2]", "value": 1.2}, {"measurement": "koff", "setting": "[2]", "value": "< 1e-05", "unit": "s⁻¹"}, {"measurement": "kon", "setting": "[2]", "value": "1.8e+06", "unit": "M⁻¹ s⁻¹"}]}
{"binder": "B2", "values": [{"measurement": "Kd", "setting": "[3]", "value": 13, "unit": "nM"}, {"measurement": "koff", "setting": "[3]", "value": 0.1, "unit": "s⁻¹"}, {"measurement": "kon", "setting": "[3]", "value": "1e+07", "unit": "M⁻¹ s⁻¹"}]}
